Measurements reported in article PMC5555201, “Parallel homodimer structures of the extracellular domains of the voltage-gated sodium channel β4 subunit explain its role in cell–cell adhesion” (The Journal of Biological Chemistry, 2017).

Columns and labels:
[1] = target: the molecule itself; experiment: crystal structure; mouse β4ex, cubic crystal form, 3.1 Å; 2.7 M sodium malonate, 0.1 M Tris-HCl (pH 7.0), 0.5% Tween 20, 20 °C; two molecules in the asymmetric unit related by non-crystallographic 2-fold symmetry
[2] = target: the molecule itself; experiment: SEC; HiLoad 16/60 Superdex 75, non-reducing conditions; second peak (65–75 ml) of the anion exchange chromatography; 20 mM Tris-HCl (pH 8.0), 150 mM NaCl, 10% glycerol

Protein	binding result [1]	stoichiometry N [2]
mouse β4 subunit extracellular domain fragment (residues 30–160) with a C-terminal His6 tag (domain or fragment, UniProt Q7M729 30-160, looked up, voltage-gated sodium channel β4 subunit, mouse, GenBank BK001031.1, residues 30–160 (numbering starts from the initiator methionine residue); all three Cys residues kept; Cloned into pGEX6P2; GST cleaved with PreScission protease; also called mouse β4ex; mouse β4 (cubic form); source: E. coli BL21DE3, purified (nickel-Sepharose, glutathione-Sepharose, Mono Q); not shown: His6, C-terminal, kept) SLEVSVGKATTIYAINGSSILLPCTFSSCYGFENLYFKWSYNNSETSRILIDGIVKNDKSDPKVRVKDDDRITLEGSTKEKTNNISILLSDLEFSDTGRYTCFVRNPKEKDLNNSATIFLQVVDKLEKVDN	binds	–
human β4 subunit extracellular domain fragment (residues 30–152) (domain or fragment, UniProt Q8IWT1-1 30-152, looked up, voltage-gated sodium channel β4 subunit, human, GenBank NP_777594, residues 30–152; all three Cys residues kept; His tag cleaved by tobacco etch virus protease; also called human β4ex; human β4 (hexagonal form); source: E. coli cell-free protein synthesis, purified (HisTrap, HiTrap Q, Superdex 75); not shown: His tag, N-terminal, cleaved) SLEVSVGKATDIYAVNGTEILLPCTFSSCFGFEDLHFRWTYNSSDAFKILIEGTVKNEKSDPKVTLKDDDRITLVGSTKEKMNNISIVLRDLEFSDTGKYTCHVKNPKENNLQHHATIFLQVV	–	2
